# Test: yeast display, Sf9 membrane polyspecificity reagent, FACS + sequencing; frameworks hold sequencing errors
# In short: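 Galactose induction of a Saccharomyces cerevisiae BJ5465 synthetic nanobody display library ran 36–48 hours. The cells were then stained for 1 hour at 4 °C with 10% biotinylated, detergent-solubilized Sf9 membrane reagent, pulled down on streptavidin microbeads and FACS-sorted into low and high (top ~1%) gates on expression and reagent-binding fluorescence. Labels for polyreactivity follow the gate of origin.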
row,Sequence,polyreactivity (PSR sort gate)
1,QVQLEESGGGLVQAGGSLRLSCAASGITFLRNAMGWYSQAPGKERELVAAISRSGGRTYYADSVKGRFTISRDNAQNTVYLQMNSLKPEDTAVYYCAVVTQFGDGYYWGQGTQVTVSS,high polyreactivity
2,QVQLEESGGGLVQAGGSLRLSCAASGITFLTYAMGWYRQATVKERELVAGITSGGTTYYADSVKGRFTISRDNAMNTVYLQMNSLKPEDTAVYYCNADLQEYQSYDYWGQGTQVTVSS,low polyreactivity
3,QVQLEESGGGLVQAGGSLRLSCAASGLIFIYNTMGWYRQAPGKERQLVAAISGRGGSTYYADSVKGRFTISRDNAKNSVYLQMNSLKPEDTAVYYCAAQDTYHSYGLYSWGQGTQVTVSS,low polyreactivity
4,QVQLEESGGGLVQAGGSLRLSCAASGLTFATYAIGWYRQAPGKERELVAAISRSGGRTYFADSVKGRFTISRDNAKNTVYLQMNSLKPEDTAVYYCNADFYASDDYWGQGTQVTVSS,high polyreactivity
5,QVQLEESGGGLVQAGGSLRLSCAASGLTFEWYTMGWYRQAPGKERELVAVITVSGSSTYYADSVKGRFSISRDNAKNTVYLQMNSLKPEDTAVYYCNADWSFYSYTLYDYWGQGTQVTVSS,low polyreactivity
6,QVQLEESGGGLVQAGGSLRLSCAASGLTLYKNGMGWYRQSPGKERELVAVISRSGGRTYYADSVKGRFTISRDNAKNTVYLQMNSLKPDDTAVYYCAARQYGPRYTYYYWGQGTQVTVSS,high polyreactivity
7,QVQLEESGGGLVQAGGSLRLSCAASGNIFLIYAMGWYRQAPRKEVEMVAAISFSDDTTDYADSVKGRFTSSRDNAKNTVYLQLNSLKQEDTAVYFCAAELYYDVANTQYDYWGQGTQVTVSS,high polyreactivity
8,QVQLEESGGGLVQAGGSLRLSCAASGNIFWGNAMGWYRQAPGKEMELVAAITSIDSSTYYADSVKGRFTISRDNAKNTVYLQMNSLKPEDTAVYYCAADGDWYGYIWQSDDGYDSWGQGTQVTVSS,low polyreactivity
9,QVQLEESGGGLVQAGGSLRLSCAASGRIFDVNAMGWYRQAPGKERELVPRITSDGGTYYADSVKGRFTISRDNAKNTVYLQMNSLKPEDTAVYYCNAPYWFSPGYGGFEFGYDYWGQGTQVTVSS,low polyreactivity
10,QVQLEESGGGLVQAGGSLRLSCAASGRIFEYYAMGWYRQAPGIERELVAAINTGGNTYYADSVKGRFTISRDNAKNTVYLQMNSLKPEDTAVYYCATYPIWYGGYLSGTDYDYWGQGTQVTVSS,low polyreactivity
11,QVQLEESGGGLVQAGGSLRLSCAASGRIFGGYAMGWYRQAPGKERELVAAISRNGGNTYYADSVKGRFTISRDNAKNTVYLQMNSLKPEDTAVYYCAATYDGTYDYWGQGTQVTVSS,high polyreactivity
12,QVQLEESGGGLVQAGGSLRLSCAASGRIFKRYAMGWYRQAPGKERELVAAITWSGTRTYYADSVKGRFTISRDNAKNTVYLQMNSLKPEDTAVYYCAADQKYHQRPSEYGYWGQGTQVTVSS,high polyreactivity
13,QVQLEESGGGLVQAGGSLRLSCAASGRIFPYYTMGWYRQAPGKERELVAAISWSGGSTYYADSVKGRFTISRDNAKNTVYLQMNSLKPEDTAVYYCNVRKVYRYQYRFEYWGQGTQVTVSS,high polyreactivity
14,QVQLEESGGGLVQAGGSLRLSCAASGRIFSYNAMGWSIPAPGKERELVAAISYSGGRTYYADSVKGRFTISRDNAKNTVYLQMNSLKPEDTAVYYCAAKRKIRGYGPYEYWGQGTQVTVSS,high polyreactivity
15,QVQLEESGGGLVQAGGSLRLSCAASGRIFYLNAIGWYRQAPRKATELVAAINTSGDSTYYADSVKGRFTISRDNAKNTVYLQMNSLKPEDTAVYYCAAFGIGPDQFIYDYWGQGTKVTVSS,low polyreactivity
16,QVQLEESGGGLVQAGGSLRLSCAASGRIFYYYTMGWYRQAPGKERELVAAISWGGVNTDYADSVKGRFTISRDNAKNTVYLQMNSLKPEDTAVYYCAAGRWSVGTYDYWGQGTQVTVSS,low polyreactivity
17,QVQLEESGGGLVQAGGSLRLSCAASGRNFLYNAMGWYRQAPGKERELVAAITASGGTTYYADSVKGRFTISRDNAKNNVYLQMNSLKPEDTAVYYCNAYSYSGERYYWGQGTQVTVSS,high polyreactivity
18,QVQLEESGGGLVQAGGSLRLSCAASGRTFDRYAMGWYRQAPGKERELVAAITWSGGRTYYADSVKGRFTISRDNPKNTVYLQMNSLKPEDTAVYYCATAYYYHGGYYYPYDVDYWGQGTQVTVSS,low polyreactivity
19,QVQLEESGGGLVQAGGSLRLSCAASGRTFGRNAMGWYRQAPGERELVAVISRGGSTYYADSVKGRFTISRDNAKNSVYLQMNSLIPEDTAVYYCNADTVYTRTAPYDYWGQGTQVTVSS,low polyreactivity
20,QVQLEESGGGLVQAGGSLRLSCAASGRTFITYAMGWYRQAPGKVRELVASITSNGGRTYYADSVKGRFKISRDNAKNTVYLQMNSLKPEYTAVYYCSAGTRSRAPYYRTSVDTYGYWGQGTQVTVSS,low polyreactivity

# Reference: the nanobody polyreactivity screen of Harvey et al. (2022)
